Data taken from the supplement of paper PMC10201428.
± gives the standard deviation of the averaged measurements.

Assays:
[1] = system: VchCAST RNA-guided transposition machinery (E. coli BL21(DE3) host, lacZ target); assay: relative integration efficiency (T-RL orientation) vs wild-type transposon end (log2 (normalized fold change)); transposon end mutated: right end (5 bp flank + 75 bp right end); higher = more efficient transposition
How it was run: (§1)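 In E. coli BL21(DE3), a T7-driven effector plasmid was paired with a pUC57 mini-transposon donor containing 1549 left-end or 1849 right-end barcoded transposon variants. Cells grew on plates with 0.1 mM IPTG at 37°C for 18 h. Relative integration efficiency was derived from Illumina reads of genomic integration junctions against input plasmids, as a log-transformed output/input barcode fold change normalised to reference barcodes.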

[2] = system: VchCAST RNA-guided transposition machinery (E. coli BL21(DE3) host, lacZ target); assay: relative integration efficiency (T-LR orientation) vs wild-type transposon end (log2 (normalized fold change)); transposon end mutated: right end (5 bp flank + 75 bp right end); higher = more efficient transposition
How it was run: as §1

Sequence	relative integration efficiency (log2) [1]	relative integration efficiency (log2) [2]
ACATTTGTTGCGCAAACCATAAAATGATAATTACACCCATAAATTGATAATTATCACACCCATAAATTGATATTGCCTCTGATCATAGTCAGACCAACATTGCTACGACCCGTATTCGCACCGACAC	-0.839 ± 0.087	-2.91 ± 0.35
ACATTTGTTGATACAACCATATATTGATATCTCCAACCATAAAGTGATATTTATCACAACCATAAAATGATAATTACTCTGATCATAGTCAGACCAACATTGCTACGACCCGTATTCGCACCGACAC	-0.716 ± 0.2	-0.762 ± 0.065
ACATTTGTTGATACAACCATACAATGATAATTACACCCATACATTGATAATTATCACACCCATACATTGATATTGCCTCTGATCATAGTCAGACCAACATTGCTACGACCCGTATTCGCACCGACAC	-2.95 ± 0.34	-1.3 ± 0.016
ACATTTGTTGATACAACCATAAAATGATAATTACACCCATAAATTGATAATTATCACACCCATAAATTGATATTGCCTCTGGCTAGCACTATACCTAGGACTGAGCTAGCCGTCAACGCACCGACAC	-4.7 ± 0.55	0.877 ± 0.31
ACATTTGTTGATACAACCATAAAATGATAATTACACCACGCAATTGATAATTATCACACCCATAAATTGATATTGCCTCTGATCATAGTCAGACCAACATTGCTACGACCCGTATTCGCACCGACAC	-3.04 ± 0.044	-2.53 ± 0.18
ACATTTGTTGATACACCCATAAATTGATATTGCCAACCATAAGTTGATATTTTTCACAACCATAAGTTGATATTTTCTCTGATCATAGTCAGACCAACATTGCTACGACCCGTATTCGCACCGACAC	-0.695 ± 0.095	-0.197 ± 0.3
ACATTTGTTGATACAACCATAAAATGATAATTACACCCATAAATTGCGAATTATCACACCCATAAATTGATATTGCCTCTGATCATAGTCAGACCAACATTGCTACGACCCGTATTCGCACCGACAC	-0.3539 ± 0.00067	-0.682 ± 0.11
ACATTTGTTGATACAACCATAAAATGATAATTACACCCATAAATGGATCATTATCACACCCAATTTAACTATAACGCTCTGATCATAGTCAGACCAACATTGCTACGACCCGTATTCGCACCGACAC	-1.63 ± 0.33	1.07 ± 0.2
ACATTTGTGGATACAACCATAAAACGATAATTACACCCATAAATTCATCATTATCACACCCAATTTAACTATAACGCTCTGATCATAGTCAGACCAACATTGCTACGACCCGTATTCGCACCGACAC	-2.23 ± 0.37	1.17 ± 0.22
ACATTTGTTGATACAACCAAAAAATGATAATTACACCCATAAATTGATAATTGTGACACCGAATTTAACTATAACGCTCTGATCATAGTCAGACCAACATTGCTACGACCCGTATTCGCACCGACAC	-1.12 ± 0.18	2.44 ± 0.069
ACATTTGTTGATACAACCATATATTGATATCTCCAACCATAAAGTGATATTTATCACACCCATAAATTGATAATTACTCTGATCATAGTCAGACCAACATTGCTACGACCCGTATTCGCACCGACAC	-0.578 ± 0.023	-0.426 ± 0.18
ACATTTGTTGATACAACCATAAAATGATAATTAACCCCATAAATTGATAATTATCACACCCATAAATTGATATTGCCTCTGATCATAGTCAGACCAACATTGCTACGACCCGTATTCGCACCGACAC	-0.822 ± 0.075	-0.881 ± 0.17
ACATTTGTTGATACAACCATAAAATGATAATTACACCCATAAATTGATAATTATCACAAAACTAAATTGATATTGCCTCTGATCATAGTCAGACCAACATTGCTACGACCCGTATTCGCACCGACAC	-0.531 ± 0.15	2.45 ± 0.22
ACATTTGTTCATACAACCATAAAATGATAATTACACCCATAAATTGATAATTATCACCCCCAATTTAACTATAACGCTCTGATCATAGTCAGACCAACATTGCTACGACCCGTATTCGCACCGACAC	-0.912 ± 0.46	0.97 ± 0.12
ACATTTGTTGATACACCCATAAATTGATAATTACAACCATAAAGTGATATTTATCACAACCATAAGTTGATATTTTCTCTGATCATAGTCAGACCAACATTGCTACGACCCGTATTCGCACCGACAC	-0.418 ± 0.21	-0.743 ± 0.17
ACATTTGTTCTTACAACCATAAAATGATAATTACACCCATAAATTGATAATTATCACACCCATAAATTGATATTGCCTCTGATCATAGTCAGACCAACATTGCTACGACCCGTATTCGCACCGACAC	-0.825 ± 0.14	-3.55 ± 0.75
ACATTTGTTGATACAACCATAAAATGATAATTACTCTGATCATAGTCAGACCAACATTGCTACGACCCGTATTCGCACCACCCATAAATTGATAATTATCACACCCATAAATTGATATTGCCGACAC	-2.767 ± 0.019	-0.66 ± 0.24
ACATTTCTTCATACAACCATAAAATGATAATTACACCCATAAATTGATCATTATCACACCCAATTTAACTATAACGCTCTGATCATAGTCAGACCAACATTGCTACGACCCGTATTCGCACCGACAC	-4.44 ± 0.65	-3.3 ± 0.16

Sequence	relative integration efficiency (log2) [1]	relative integration efficiency (log2) [2]
ACATTTGTTGATACAACCATAAAATGATAATTACACCCATAAATTGATAATTATCACACCCATAAATTGATATTGCCTCTTAACACCCGTATTACTTCATAATCGTTTGTAATTCAAGCACCGACAC	-0.169 ± 0.26	1.41 ± 0.25
ACATTTGTCGATACAACCATAAAATGATAATTACACCCATAAATTCATAATTATCACACCCAATTTAACTATAACGCTCTGATCATAGTCAGACCAACATTGCTACGACCCGTATTCGCACCGACAC	-1.92 ± 0.14	1.2 ± 0.05
ACATTTGTTGATACAACCATATTTTGATAATTACACCCATATTATGATAATTATCACACCCATATTATGATATTGCCTCTGATCATAGTCAGACCAACATTGCTACGACCCGTATTCGCACCGACAC	-0.721 ± 0.17	-0.241 ± 0.0091
ACATTTGTTGATCACCCCATAAAATGATAATTACACCCATAAATTGATAATTATCACACCCATAAATTGATATTGCCTCTGATCATAGTCAGACCAACATTGCTACGACCCGTATTCGCACCGACAC	-0.839 ± 0.08	-1.51 ± 0.22
ACATTTGTTCATACAACCATAAAATGATAATTACCACCCATAAATTGATAATTATCACACCCATTTAACTATAACGCTCTGATCATAGTCAGACCAACATTGCTACGACCCGTATTCGCACCGACAC	-1.38 ± 0.23	-0.231 ± 0.23
ACATTTGTTGATACAACCATAAAATGATAAATACACCCATAAATTGATAAATATCACACCCATAAATTGATATAGCCTCTGATCATAGTCAGACCAACATTGCTACGACCCGTATTCGCACCGACAC	-0.443 ± 0.15	0.037 ± 0.84
ACATTTGTTGATACAACCATAAAATGATAATTACACCCATAAATTGATAATTATCACACCCATAAATTGATATTGCCCAACCATAAAATGATAATTATCTGATCATAGTCAGACCAAGCACCGACAC	-0.0286 ± 0.28	-0.886 ± 0.6
ACATTTGTCGATCCAACCATAAAATGATAATTACACCCATAAATGGATCATTATCACACCCAATTTAACTATAACGCTCTGATCATAGTCAGACCAACATTGCTACGACCCGTATTCGCACCGACAC	-2.08 ± 0.19	0.888 ± 0.17
ACATTTGTTGATACAACCATAAAATGATAATTAATAATTATTTATAATCAGCAACTTAACCACAAACACCCATAAATTGATAATTATCACACCCATAAATTGATATTGCCTCTGATCATAGTCAGAC	-5.71 ± 1.2	-4.03 ± 0.67
ACATTTGTTGATACCACCATCAAATGATAATTACACCCCTAAATTGATAATTATCACACCCAATTTAACTATAACGCTCTGATCATAGTCAGACCAACATTGCTACGACCCGTATTCGCACCGACAC	-4.72 ± 0.056	-1.78 ± 0.038
ACATTTGTAAATAAAACCATACGTTGATTTTACGAAACCATACGCTGAAATAATCACACCCATAAATTGATATTGCCTCTGATCATAGTCAGACCAACATTGCTACGACCCGTATTCGCACCGACAC	-6.595 ± 0.05	-4.7 ± 0.57
ACATTTGTTGATACAACCATAAAATGATAATTACACCCATAAATTGATAATTATCACACGGTAAAATTGATATTGCCTCTGATCATAGTCAGACCAACATTGCTACGACCCGTATTCGCACCGACAC	-0.357 ± 0.043	2.35 ± 0.067
ACATTTGTTGATACAACCATAAAATGATAATTACACCCATAAATTGATAATTATCACTGGGATAAATTGATATTGCCTCTGATCATAGTCAGACCAACATTGCTACGACCCGTATTCGCACCGACAC	-0.4 ± 0.027	2.07 ± 0.067
ACATTTCTTCATACAACCATAAAATGATAATTACACCCATAAATTCATCATTATCACACCCAATTTAACTATAACGCTCTGATCATAGTCAGACCAACATTGCTACGACCCGTATTCGCACCGACAC	-4.8 ± 0.27	-3.38 ± 0.49
CAAAATGTAAAAAAAACCATACGTTGATTTTACGAAACCATACGCTGAAATAAAAACAACCATACCTTGAAATTGCTTATGATCATAGTCAGACCAACATTGCTACGACCCGTATTCGCACCGACAC	-6.15 ± 0.21	-4.98 ± 2.3
ACATTTGTTGATACAACCATAAAATGATAATTACTCTGATCATAGTCAGACCAACATTGCTACCACCCATAAATTGATAATTATCAGTGGGTATTTAACTATAACGGACCCGTATTCGCACCGACAC	-1.54 ± 0.53	1.601 ± 0.014
ACATTTGTTGATACAACCATAAAATGATAATTAATAATTATTTATAATCAGCACCCATAAATTGATAATTATCACACCCATAAATTGATATTGCCTCTGATCATAGTCAGACCAACATTGCTACGAC	-3.29 ± 0.1	-0.258 ± 0.51
